Test results as given in the RNAGym collection of RNA variant scans (doi:10.1073/pnas.2313332121).
Variants at the floor of the assay were thinned out.

B1: TPR 5TU (parent)
chain: GGAUCUUCUCGAUCUAACAAAAAAGACAAAUCUGCCACAAAGCUUGAGAGCAUCUUCGGAUGCAGAGGCGGCAGCCUUCGGUGGCGCGAUAGCGCCAACGUUCUCAACUAUGACACGCAAAACGCGUGCUCCGUUGAAUGGAGUUUAUCAUG

Variants of: B1
Assay: polymerase ribozyme fitness, log enrichment relative to wild type (log ratio); higher = more active; in vitro selection for triplet polymerase activity
Method in brief: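 Mutant libraries of each subunit of a heterodimeric triplet polymerase ribozyme were built by PCR and transcribed. Each library went through one round of in vitro selection in triplicate: annealing with biotinylated primer, partner subunit and triplets, frozen incubation at −7 °C, gel excision of extended constructs, streptavidin-bead capture and RT-PCR. Input and output libraries were Illumina-sequenced; only genotypes with ≥10 input reads and ≥1 read per output were kept. Fitness is log2(genotype enrichment/wild-type enrichment), using inverse-variance-weighted replicate averages.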

Row | Variant | polymerase ribozyme fitness (log ratio)
1 | G74U | -3.33
2 | C93U U134A | -4.01
3 | A26U C35U G42C C108A A115C G133U U135A A142G U146C A147G | ≤ -4.2
4 | U9A G11A C14U A19G C76A U82G C103A C116U | ≤ -4.2
5 | G71A A91U C95G A119U A121G C129A A147G | ≤ -4.2
6 | C96U C116U G140C U144G | -4.04
7 | A26U A49C U111G | ≤ -4.2
8 | A20C C85A A97U | -3.02
9 | C5G U144G | 0.355
10 | A19U A20U C85U A142G | -2.89
11 | C35G G141C | -3.66
12 | U13G A28G U53A A64U G141U U145G G152A | ≤ -4.2
13 | A19U G84C | -2.08
14 | A24G U33G G71A C87G C93G C96A A98G A137G | ≤ -4.2
15 | C5U U13C C95U U146G | -1.13
16 | C79U A121U | -1.2
17 | U9A A19C A41C C57U C96U | ≤ -4.2
18 | G80A G81C C95G U145G | -1.72
19 | U45G C103A A150U | ≤ -4.2
20 | U15G G25U | -3.22
21 | A17U A19C G42U U56C C76A G88A | ≤ -4.2
22 | A60U U130G G143C | ≤ -4.2
23 | A28U A52C A97U A137U U139C | ≤ -4.2
24 | C85G | -2.05

Row | Variant | polymerase ribozyme fitness (log ratio)
25 | C10G C18U C85G G133U A138G | ≤ -4.2
26 | G48A U135A | -0.864
27 | C5U A24C C79A G84A U104A A142G | ≤ -4.2
28 | A24C A49C G84A A97C U130G A137U | ≤ -4.2
29 | A20U A29G G48C A49C G117A U134G A137C U139A | ≤ -4.2
30 | A30C G84A A115C C149U | ≤ -4.2
31 | A20C A40G A52G C85A A98G | -4.01
32 | A60G G94A U102A C123G | -1.46
33 | C54U G124C | -0.768
34 | A20U A21U | -0.727
35 | A40U G50C G67C C103A C129G U144G | ≤ -4.2
36 | C96U | -0.258
37 | A41U U82G G86U A97U G124C | -3.18
38 | C14G A20G A24U C72G U82G A97G U101C C103G G136A | ≤ -4.2
39 | C27A A28U C38U A39U A47U | ≤ -4.2
40 | U61A C87U G92A A106G A122U | -2.84
41 | G83C C93G | ≤ -4.2
42 | C14U C85U | -1.65
43 | C57U G59A G86A U134A U148A | ≤ -4.2
44 | A20U A23U A24U C51U A60G C85G | ≤ -4.2
45 | U6G C10G G50C U55A G58A C72G C95U C96U U144G U148A | ≤ -4.2
46 | G50C G83U C93A G100U G124C G128U C132G U145G | ≤ -4.2
47 | A12U C38G G50A A66C | ≤ -4.2
48 | C8A C85U | -2.6

Row | Variant | polymerase ribozyme fitness (log ratio)
49 | A28U A37C U55A A106C U134G G140A | ≤ -4.2
50 | C27U A28C U44G A52C C93A | -4.1
51 | U9A C125G | ≤ -4.2
52 | C85A | -1.28
53 | A12G A91G A106G | -2.04
54 | A22G C36U C87U | -3.06
55 | C32U C38U C93G A122G G126C U145A | ≤ -4.2
56 | G62A C99U | -2.24
57 | U7G U130A | -4.18
58 | C32U A49C G92U C99A A115G A147C | ≤ -4.2
59 | U56A C57G C87A A119G G126A | ≤ -4.2
60 | A60U | -0.665
61 | C27A G117A | -3.86
62 | C35G G83A A89C A142U | ≤ -4.2
63 | U9G U139C | ≤ -4.2
64 | C32A C96U | -4.11
65 | A40C C96G A119G | 0.217
66 | C38A U55A G94U C99G | -3.88
67 | C14G G59A A73U C87G | ≤ -4.2
68 | C72U C96G U127C C131U G140U U151A | ≤ -4.2
69 | C10G A47U C54A C72U G81A G92C G133U U135G | ≤ -4.2
70 | A30C G48C G50U A98G A107G C118U A120C G141U | ≤ -4.2
71 | A39G G62A G94A A120U G143U | ≤ -4.2
72 | G59U A98G | 0.162

Row | Variant | polymerase ribozyme fitness (log ratio)
73 | A20C G48C G62A | -2.35
74 | A47G G83C U134A G140U | -4.17
75 | G62U A73U | -3.59
76 | A20G G83A G88C C93G G100A C149U | ≤ -4.2
77 | G67C G80C G92A C103A C118G G133A | ≤ -4.2
78 | A12U A21C G70C G84U C132A G136A A142U | ≤ -4.2
79 | A3U U53A G84U A138G G152A | ≤ -4.2
80 | C27G A29G C95U | ≤ -4.2
81 | U45G C54A C87G A121U C123G | ≤ -4.2
82 | U6G G50C | -3.07
83 | C118U U135C | -2.19
84 | A23U U55A | -3.85
85 | A21G A40U U56A C132A | -3.09
86 | A21C A60G A73U C93G A137U | ≤ -4.2
87 | C32G A49C C118U | ≤ -4.2
88 | G92C | -0.459
89 | C36G U146G | -3.97
90 | A64G G80U C85U C93U G94U C103U | -4.18
91 | G65A A97G C99G | -3.75
92 | A39G A41G A49G G83C U145A | -3.94
93 | A16C C51U G84U U135A | -3.41
94 | G83A A110C C123G | ≤ -4.2
95 | C36A A73U G92U U134G G143U | -4.13
96 | A21C C87G | -3.89

Row | Variant | polymerase ribozyme fitness (log ratio)
97 | A29C A52G G83C A106C | ≤ -4.2
98 | C5A A28U U55A C57G C96U G141U | ≤ -4.2
99 | A16G C35U | -1.36
100 | C10A G81C | ≤ -4.2
101 | G81C C93U U130G C131U A150U | ≤ -4.2
102 | C36A C95U | -3.7
103 | C8A A41G | -4.12
104 | G11U A26U U61G G84U C85A C96A U139A | ≤ -4.2
105 | C87U U102C | -1.21
106 | A29G G42A G81A C85U | -4.09
107 | G68U C85G | ≤ -4.2
108 | U6G G128U | -3.77
109 | C14G A21U A52G C85A C118G G128A G141C | ≤ -4.2
110 | A29G G86U G143A | ≤ -4.2
111 | C75G G84A | -3.93
112 | G62A G70A G71A G80C C87U C108U | ≤ -4.2
113 | A40G A41C C43A G83C C87G C96A | ≤ -4.2
114 | A29U A52U U53A G80A C87A G128U U146C | ≤ -4.2
115 | A37C C114U | -3.07
116 | A23C U44C A64C G92C A97U | ≤ -4.2
117 | U6A U7C G83A C125A | -3.64
118 | U53A C87U | -0.931
119 | C14U C85A G140A | ≤ -4.2
120 | U9A C63U C69U C76U C93A A113U G136C | ≤ -4.2

Row | Variant | polymerase ribozyme fitness (log ratio)
121 | A22U A28U U45G G50U C103G | ≤ -4.2
122 | C93A U146G | -3.27
123 | G84C A121U A122C | -1.63
124 | C96A A137U | -3.87
125 | G59C U78G G81C | -4.11
126 | A21C G25A C63G | -3.29
127 | A97C | 0.773
128 | A119C G143A | -0.422
129 | C43U G48A C57G C85U | ≤ -4.2
130 | U55A G71A U77C C95U A113C C149G | ≤ -4.2
131 | A28U C76G G92U | ≤ -4.2
132 | G50A C95U C125U | -2.44
133 | A73G U77C G88C | ≤ -4.2
134 | A30G A40G C54A C85U G117C | ≤ -4.2
135 | A16G A17G C18A G58C A60G C95A U144C A150C | ≤ -4.2
136 | A52C C96U A119U U130G | ≤ -4.2
137 | A66C C76U U82G C85G C125G | ≤ -4.2
138 | A52U G86U U104C | -3.56
139 | U7G A19C A30U G71C G84A C96G C118G | ≤ -4.2
140 | A20U G46C U56A C96U U135C A147G | ≤ -4.2
141 | G62A G140A | -3.95
142 | U15C A20G A21U A39U C76U C85A C103A C108U | ≤ -4.2
143 | A47G C87A G126A | ≤ -4.2
144 | A12C A20G A37C C51U G58C A91C | ≤ -4.2

Row | Variant | polymerase ribozyme fitness (log ratio)
145 | U4G C69G C96U A142C | -3.64
146 | C35U G46A A119G A121U | -1.45
147 | C8G A20C A73U C99G A106G G140A U144G A147C | ≤ -4.2
148 | C32G G48C U53C U82G | ≤ -4.2
149 | U55G G84U A106G | -1.26
150 | A41U C85G | -2.37
151 | A23C C43A A52U A119C U135G U139A G140A A142G | ≤ -4.2
152 | C57A A64G A66G C118U A147C G152U | ≤ -4.2
153 | A52U G84U G86A A91U A121U | ≤ -4.2
154 | U82G A113G C125U | -3.28
155 | C76A C99A | -4.05
156 | G50C G71U C85A G124U | ≤ -4.2
157 | C87U C118G | -1.33
158 | U9G C27A C96A | ≤ -4.2
159 | G59U C85U A150U | 1.1
160 | U33C C43U G126U | ≤ -4.2
161 | A16G C54U C76A C93U A97G C103U C123U G128C | ≤ -4.2
162 | A37U G94A | -1
163 | C38U A52G G92A G124U | -3.84
164 | U104G U109A G133C | -2.78
165 | C54U G84A A97U | -1.27
166 | G42A G48A G68A G86U C132A | ≤ -4.2
167 | G88A A106G | -3.55
